Measured values reported in article PMC10397247.

Experiments:
Assay in all cases: two-hybrid library CCNG1;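 also: natural log of median RNA to DNA barcode read ratio; higher means stronger binding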
[1] = target: T1, 4H1985-bN
T1 chain: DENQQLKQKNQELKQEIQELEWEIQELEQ

[2] = target: T2, 4H2702-bA
T2 chain: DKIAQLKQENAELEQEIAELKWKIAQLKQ

[3] = target: T3, 4H3974-bN
T3 chain: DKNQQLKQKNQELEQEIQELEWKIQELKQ

[4] = target: T4, 4H570-bN
T4 chain: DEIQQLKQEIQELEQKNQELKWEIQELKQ

[5] = target: T5, 4H3858-bN
T5 chain: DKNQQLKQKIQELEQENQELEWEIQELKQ

[6] = target: T6, 4H1710-bN
T6 chain: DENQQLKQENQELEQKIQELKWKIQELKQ

[7] = target: T7, 4H1348-bN
T7 chain: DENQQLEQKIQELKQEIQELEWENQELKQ

[8] = target: T8, 4H3817-bN
T8 chain: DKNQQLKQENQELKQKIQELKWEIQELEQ

[9] = target: T9, 4H1544-bN
T9 chain: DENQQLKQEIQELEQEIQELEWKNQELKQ

[10] = target: T10, 4H3628-bN
T10 chain: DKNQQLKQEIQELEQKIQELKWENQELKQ

[11] = target: T11, 4H1449-bN
T11 chain: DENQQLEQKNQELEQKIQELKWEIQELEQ

[12] = target: T12, 4H1338-bN
T12 chain: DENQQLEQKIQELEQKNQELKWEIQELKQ

[13] = target: T13, 4H3613-bN
T13 chain: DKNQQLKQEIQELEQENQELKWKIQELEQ

[14] = target: T14, 4H1373-bN
T14 chain: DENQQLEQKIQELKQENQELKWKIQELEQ

[15] = target: T15, 4H850-bN
T15 chain: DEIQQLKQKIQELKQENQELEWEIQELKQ

[16] = target: T16, 4H1899-bN
T16 chain: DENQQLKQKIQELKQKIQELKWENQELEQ

interaction score [1]: -0.88 | interaction score [2]: -2.23 | interaction score [3]: -0.674 | interaction score [4]: -0.567 | interaction score [5]: 1.37 | interaction score [6]: -0.345 | interaction score [7]: -1.29 | interaction score [8]: -0.326 | interaction score [9]: 0.114 | interaction score [10]: -0.229 | interaction score [11]: -0.847 | interaction score [12]: 0.0248 | interaction score [13]: -0.479 | interaction score [14]: -1.16 | interaction score [15]: 0.8 | interaction score [16]: -2.73
Binder: DENQQLEQKIQELEQKNQELKWEIQELKQ [4H1338-bN]
